Test results from patent US20250136718A1 (MABWELL THERAPEUTICS, published 2025).
Each block holds one binder with its values, some of them ahead of it.

Assays:
[1] = molecular target: T1, mouse TMPRSS6 expressed on HEK293T cells, MoTMPRSS6-(His)6 (mouse, UniProt Q9DBI0 1-811); test: FACS on HEK293T cells stably expressing MoTMPRSS6-(His)6
T1 construct: HEK293T cells stably expressing the construct; also called murine TMPRSS6
T1 sequence: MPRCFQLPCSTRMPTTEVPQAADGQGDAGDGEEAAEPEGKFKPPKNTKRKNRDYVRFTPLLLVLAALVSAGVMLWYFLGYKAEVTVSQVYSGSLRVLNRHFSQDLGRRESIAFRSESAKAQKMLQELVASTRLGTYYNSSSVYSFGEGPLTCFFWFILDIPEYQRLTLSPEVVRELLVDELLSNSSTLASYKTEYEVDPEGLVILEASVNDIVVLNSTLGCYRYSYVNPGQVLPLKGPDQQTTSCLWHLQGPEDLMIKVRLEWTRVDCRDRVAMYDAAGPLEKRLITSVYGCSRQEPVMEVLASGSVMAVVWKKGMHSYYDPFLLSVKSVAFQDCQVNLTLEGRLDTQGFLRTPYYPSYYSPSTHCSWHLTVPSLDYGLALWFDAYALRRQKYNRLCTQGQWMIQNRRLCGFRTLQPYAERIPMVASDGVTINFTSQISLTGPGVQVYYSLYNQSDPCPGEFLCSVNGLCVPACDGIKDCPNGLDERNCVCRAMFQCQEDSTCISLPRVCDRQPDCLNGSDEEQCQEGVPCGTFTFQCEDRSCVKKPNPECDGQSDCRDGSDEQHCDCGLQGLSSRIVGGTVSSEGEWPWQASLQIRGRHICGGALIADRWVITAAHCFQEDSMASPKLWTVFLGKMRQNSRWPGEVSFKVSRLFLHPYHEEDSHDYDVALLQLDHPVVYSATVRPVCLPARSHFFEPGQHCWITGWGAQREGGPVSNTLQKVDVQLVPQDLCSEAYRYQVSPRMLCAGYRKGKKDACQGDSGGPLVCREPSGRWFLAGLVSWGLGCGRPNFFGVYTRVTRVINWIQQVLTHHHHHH
Description: Selected anti-TMPRSS6 antibodies were tested to determine whether any are capable of binding to TMPRSS6 from mouse and/or cynomolgus monkey. HEK293T cells stably expressing human TMPRSS6 (HuTMPRSS6-(His)₆) (generated by LakePharma Inc as described above), HEK293T cells stably expressing mouse TMPRSS6 (MoTMPRSS6-(His)₆) (SEQ ID NO: 98) (generated by LakePharma Inc as described above) and HEK293T cells transiently expressing cynomolgus monkey TMPRSS6 (CynoTMPRSS6-(His)₆) (SEQ ID NO: 99) (generated in house) were collected. HEK293T cells stably expressing human TMPRSS6 were used as a positive control and HEK293T cells were used as a negative control (as described above). Cells were blocked with dPBS+3% BSA before incubation with anti-TMPRSS6 antibodies diluted in dPBS+3% BSA. After incubation, cells were washed with dPBS and followed by another incubation with goat anti-mouse IgG conjugated with AlexaFluor-488 as a 2° antibody (Invitrogen). At last, cells were washed with dPBS to remove unbound antibody, re-suspended with dPBS+1 mM EDTA, and then subjected to FACS analysis using a NOVOCYTE® Flow Cytometer (ACEA Biosciences, Inc., San Diego CA). Bound antibody was determined by excitation at 488 nm and measurement of emission (FITC-A) at 530 nm. Results for these assays are shown in histogram plots in FIGS. 4A-4I.

[2] = molecular target: T1, mouse TMPRSS6 expressed on HEK293T …; test: cell surface ELISA on methanol-fixed HEK293T cells expressing mouse TMPRSS6
Description: (§1) HEK293T cells stably expressing mouse TMPRSS6 (generated by LakePharma Inc as described above, FIGS. 4J, 4L, 4N, 4P, 4R, 4T) or cynomolgus monkey (generated in house as described above, FIGS. 4K, 4M, 4O, 4Q, 4S, 4U) were fixed with methanol (100%), and washed with dPBS (Dulbecco's phosphate-buffered saline, Corning Cellgro) before incubation with various concentrations of anti-TMPRSS6 antibodies and their humanized variants diluted in BSA medium (DMEM+1% Pen/Strep+10 mM HEPES+1 mg/ml BSA (Sigma-Aldrich)). Purified mouse IgG (FIGS. 4J-4O) or Human IgG1 (FIGS. 4P-4U) was used as a control. After incubation, cells were washed with BSA medium and then incubated with goat anti-mouse (Invitrogen, FIGS. 4J-4O) or anti-human (Millipore, FIGS. 4P-4U) IgG conjugated with HRP as a 2° antibody. Finally, cells were washed with dPBS to remove unbound antibody and color developed with ELISA liquid substrate (Sigma-Aldrich), followed by stopping the reaction with addition of the same volume of […] 1M H₂SO₄. Bound antibody was measured by absorbance at OD₄₅₀ₙₘ.

[3] = molecular target: T1, mouse TMPRSS6 expressed on HEK293T …; test: summary of Example 4 (cell surface ELISA)
Description: as §1

binding result [1]: no binding
B1: MWTx-002 anti-TMPRSS6 monoclonal antibody (antibody, mouse IgG2b, kappa, V domains shown)
VH: EVQLQQSGAELVKPGASVKLSCTASGFNIKDYYIHWVKERTEQGLEWFGRIDPEDGESEYAPKFQGKATLTADTSSNTAYLQLSSLTSEDTAVYYCTRGDSMMVTYFDYWGQGTTLTVSS
VL: DIVMTQSHKFMSTSVGDRVSITCKASQDVSTAVAWYQQKPGQSPKLLIYWAFTRHTGVPDRFTSTGSGTDYALTISSVQAEDLALYYCQQHYRSPWTFGGGTKLEIKR
notes: Mouse monoclonal antibody from hybridoma (ATCC PTA-126760)

binding result [2]: no binding
B2: humanized anti-TMPRSS6 antibody variant hzMWTx-002 Var (antibody, human IgG1, kappa, N297A, V domains shown)
VH: EVQLVQSGAEVKKPGASVKVSCKASGFNIKDYYIHWVRQATGQGLEWMGRIDPEDAESEYAPKFQGRVTITADTSTDTAYMELSSLRSEDTAVYYCTRGDSMMVTYFDYWGQGTLVTVSS
VL: DIQMTQSPSSLSASVGDRVTITCKASQDVSTAVAWYQQKPGKAPKLLIYWAFTRHTGVPSRFSGSGSGTDYALTISSLQPEDFATYYCQQHYRSPWTFGGGTKVEIKR
notes: Human IgG1 / kappa

Continued, binder first:

B3: humanized anti-TMPRSS6 antibody variant hzMWTx-001 Var (antibody, human IgG1, kappa, N297A, V domains shown)
VH: EVQLVQSGAEVKKPGASVKVSCKASGYTFTSYWITWVRQAPGQRLEWIGNIYPGSGSTYYNEKFKSKATITRDTSSRTAYMELSSLRSEDTAVYYCAPYDADYAMDYWGQGTLVTVSS
VL: DIQMTQSPSSLSASVGDRVTITCKASQDISNYLSWFQQKPGKAPKLLIYRANRLVEGVPSRFSGSGSGTDFTLTISSLQPEDFATYFCLQYDEFPLTFGGGTKVEIKR
notes: Human IgG1 / kappa
binding result [3]: binds

B4: humanized anti-TMPRSS6 antibody variant hzMWTx-003 Var (antibody, human IgG1, kappa, L234A L235A, V domains shown)
VH: QVQLVQSGAEVKKPGASVKVSCKASGFNIEDYYMHWVRQAPGQRLEWMGRIDPEDAETTYSPKFQGRVTIIPDTSANTAYMELSSLRSEDTAVYYCARSIYLDPMDYWGQGTLVTVSS
VL: DIQMTQSPKSLSASVGDRVTITCRASQDVTTALAWYQQKPGQSPKLLIYWATTRHSGVPSRFSGSGSGTDFTLTISSLQPEDFATYYCQQHYSTPYTFGQGTKLEIKR
notes: Human IgG1 / kappa
binding result [3]: binds
